According to publication PMC3547953:

Biological target: tumor necrosis factor-alpha (TNF-α) (UniProt P01375)
Sequence of UniProt P01375 (P01375 77-233): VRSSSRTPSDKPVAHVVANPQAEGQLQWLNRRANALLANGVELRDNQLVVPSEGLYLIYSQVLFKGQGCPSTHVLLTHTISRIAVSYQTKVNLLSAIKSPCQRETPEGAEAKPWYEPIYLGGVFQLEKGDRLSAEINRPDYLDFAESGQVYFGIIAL

**Q.** For “anti-TNF-α antibody (ENBREL), a chimeric molecule combining the ligand-binding domain of the TNF-receptor 2 and the Fc-domain of human IgG1 (Fc fusion)”, which apoptosis (TUNEL, DNA strand breaks) of uninfected monocytes induced by added TNF-α, with anti-TNF-α mAb (ENBREL, 1 µg/ml) is on record?
**A.** 50%
